Reference: publication doi:10.1101/2022.11.28.518166, “The direct interaction with transcriptional factor TEAD4 implied a straightforward regulation mechanism of tumor suppressor NF2” (bioRxiv, 2022)
Substitutions are numbered along the chain they refer to. Names may count otherwise.

T1: MBP-NF2 (18-595) WT (UniProt P35240 18-595)
T1 construct: also called MBP-NF2 WT; MBP-NF2 FL; source: purified (amylose resin, Superdex 200); not shown: MBP, N-terminal, kept
T1 sequence (looked up): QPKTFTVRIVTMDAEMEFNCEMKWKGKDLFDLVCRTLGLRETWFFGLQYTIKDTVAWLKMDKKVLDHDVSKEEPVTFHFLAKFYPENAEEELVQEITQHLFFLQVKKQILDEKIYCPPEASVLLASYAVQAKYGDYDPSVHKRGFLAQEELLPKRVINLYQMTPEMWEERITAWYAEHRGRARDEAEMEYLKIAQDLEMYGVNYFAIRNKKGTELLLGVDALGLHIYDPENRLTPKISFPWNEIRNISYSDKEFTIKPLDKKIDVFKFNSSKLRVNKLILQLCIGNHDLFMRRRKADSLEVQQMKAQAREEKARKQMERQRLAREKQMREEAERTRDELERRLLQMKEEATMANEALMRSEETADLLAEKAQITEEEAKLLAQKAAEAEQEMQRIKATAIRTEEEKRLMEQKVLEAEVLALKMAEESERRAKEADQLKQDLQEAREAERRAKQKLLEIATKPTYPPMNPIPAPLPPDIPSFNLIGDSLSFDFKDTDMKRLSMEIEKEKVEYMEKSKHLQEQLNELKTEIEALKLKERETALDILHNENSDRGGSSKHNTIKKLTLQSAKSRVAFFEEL

T2: MBP-NF2 A585W mutant (UniProt P35240 18-595, A585W)
T2 construct: source: purified as MBP-NF2; not shown: MBP, N-terminal, kept
T2 sequence (looked up): T1 sequence (looked up) with A568W

T3: GST-NF2 N-terminal FERM domain (1-341 aa) (UniProt P35240 1-341)
T3 construct: also called GST-NF2-FERM WT
T3 sequence (looked up): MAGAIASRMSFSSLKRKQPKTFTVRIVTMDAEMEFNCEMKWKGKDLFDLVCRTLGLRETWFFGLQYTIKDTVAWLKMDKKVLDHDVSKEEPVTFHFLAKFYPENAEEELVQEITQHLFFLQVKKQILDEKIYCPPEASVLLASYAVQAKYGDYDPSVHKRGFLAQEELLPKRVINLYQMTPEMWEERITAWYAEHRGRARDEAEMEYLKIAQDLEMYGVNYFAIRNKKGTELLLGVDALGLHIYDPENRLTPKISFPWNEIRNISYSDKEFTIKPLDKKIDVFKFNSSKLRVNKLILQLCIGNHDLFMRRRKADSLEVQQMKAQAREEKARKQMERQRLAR

T4: GST-NF2 C-terminal half (342-595 aa) (UniProt P35240 342-595)
T4 sequence (looked up): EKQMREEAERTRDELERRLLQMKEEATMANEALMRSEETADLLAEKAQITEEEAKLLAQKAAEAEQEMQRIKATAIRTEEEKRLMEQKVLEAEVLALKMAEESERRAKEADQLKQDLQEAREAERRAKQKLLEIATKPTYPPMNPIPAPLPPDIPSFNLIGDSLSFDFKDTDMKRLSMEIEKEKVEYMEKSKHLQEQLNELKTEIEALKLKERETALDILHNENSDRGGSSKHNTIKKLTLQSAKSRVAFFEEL

T5: full-length NF2 with GST tag (UniProt P35240 1-595)
T5 construct: NF2 (Merlin), full length; also called GST-NF2; GST-NF2-FL; source: Escherichia coli, purified
T5 sequence (looked up): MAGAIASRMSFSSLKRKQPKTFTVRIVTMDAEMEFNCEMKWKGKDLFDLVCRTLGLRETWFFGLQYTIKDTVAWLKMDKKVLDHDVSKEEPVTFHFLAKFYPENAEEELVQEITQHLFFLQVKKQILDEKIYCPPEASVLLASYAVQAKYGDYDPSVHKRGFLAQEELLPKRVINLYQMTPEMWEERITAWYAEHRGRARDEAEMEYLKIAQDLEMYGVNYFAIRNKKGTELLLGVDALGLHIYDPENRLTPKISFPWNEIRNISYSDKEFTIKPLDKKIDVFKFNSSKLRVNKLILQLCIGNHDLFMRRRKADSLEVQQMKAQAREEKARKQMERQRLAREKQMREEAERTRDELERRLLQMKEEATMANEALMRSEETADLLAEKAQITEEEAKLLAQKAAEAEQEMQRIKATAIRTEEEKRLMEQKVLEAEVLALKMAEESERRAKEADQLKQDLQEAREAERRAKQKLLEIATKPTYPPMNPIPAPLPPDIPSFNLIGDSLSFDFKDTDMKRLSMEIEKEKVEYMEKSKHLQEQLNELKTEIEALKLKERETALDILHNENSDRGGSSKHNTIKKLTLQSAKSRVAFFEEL

B1: TEAD4 YBD domain (217-434) with N-terminal SUMO and 6xHis tag (domain or fragment, human, UniProt Q15561 217-434, looked up)
chain: RSVASSKLWMLEFSAFLEQQQDPDTYNKHLFVHIGQSSPSYSDPYLEAVDIRQIYDKFPEKKGGLKDLFERGPSNAFFLVKFWADLNTNIEDEGSSFYGVSSQYESPENMIITCSTKVCSFGKQVVEKVETEYARYENGHYSYRIHRSPLCEYMINFIHKLKHLPEKYMMNSVLENFTILQVVTNRDTQETLLCIAYVFEVSASEHGAQHHIYRLVKE
notes: Detected in the pull-downs with an antibody against 6xHis; also called SUMO-TEAD4; SUMO-tagged TEAD4-YBD; source: Escherichia coli BL21 (DE3), purified (Ni-NTA, Superdex 200); not shown: SUMO, N-terminal, kept; His6, N-terminal, kept
B2: GST-NF2 tail region (C-tail, 550-595 aa) (domain or fragment, UniProt P35240 550-595, looked up)
chain: KLKERETALDILHNENSDRGGSSKHNTIKKLTLQSAKSRVAFFEEL
notes: also called C-terminal tail
B3: GST-NF2-507-595 WT (domain or fragment, UniProt P35240 507-595, looked up)
chain: FDFKDTDMKRLSMEIEKEKVEYMEKSKHLQEQLNELKTEIEALKLKERETALDILHNENSDRGGSSKHNTIKKLTLQSAKSRVAFFEEL
B4: TEAD4-2CS (C335S/C367S), non-palmitoylated mutant of TEAD4-YBD (domain or fragment, human, UniProt Q15561 217-434, looked up)
chain: B1 chain with C119S, C151S
notes: TEAD4, human, YBD, residues 217-434 as TEAD4-YBDHis, with C335S and C367S; source: recombinant; not shown: His6, N-terminal, kept
B5: GST-YAP 47-131 (domain or fragment, UniProt P46937 47-131, looked up)
chain: APPAGHQIVHVRGDSETDLEALFNAVMNPKTANVPQTVPMRLRKLPDSFFKPPEPKSHSRQASTDAGTAGALTPQHVRAHSSPAS
notes: YAP (Yes-associated protein), residues 47-131

Legend:
Settings in all cases: both partners purified
[1] = target: T1, MBP-NF2 (18-595) WT; experiment: pull-down; MBP-NF2 bound to MBP resin in PBS 1 h at 4 °C, incubated with purified SUMO-TEAD4 in PBS 1 h at 4 °C, washed four times; SDS-PAGE and anti-6xHis blot
[2] = target: T2, MBP-NF2 A585W mutant; experiment: as above
[3] = target: T3, GST-NF2 N-terminal FERM domain (1-341 …); experiment: pull-down; GST-NF2 (full length, truncations) bound to GST resin in PBS 1 h at 4 °C, incubated with purified SUMO-TEAD4 in PBS 1 h at 4 °C, washed four times; SDS-PAGE and anti-6xHis blot; in Figure 2C with or without co-incubated FERM domain
[4] = target: T4, GST-NF2 C-terminal half (342-595 aa); experiment: as above
[5] = target: T5, full-length NF2 with GST tag; experiment: as above
[6] = target: B1; experiment: as above
[7] = target: B1; experiment: pull-down; in vitro competitive binding assay: YAP-TEAD4 complex on GST-YAP with a dose addition of NF2; SDS-PAGE

Binder: B1
binding result [1]: binds
binding result [2]: binds
binding result [3]: binds
binding result [4]: binds
binding result [5]: binds

Binder: B2
binding result [6]: binds

Binder: B3
binding result [6]: binds

Binder: B4
binding result [1]: binds

Binder: B5
binding result [7]: binds
